From doi:10.1101/2022.04.12.488087 (bioRxiv, 2022)

Target: SARS-CoV-1 wild type RBD (SARS-CoV-1 (P59594 / NP_828851.1, …))
Assay: crystal structure

B1: nanobody Nb70 (VHH with 6xHis tag, for crystal structural analysis) (VHH)
VHH: QVQLVESGGGLVQAGGSLRLSCVASGRTFSRYAMGWFRQAPGKEREFVAVIEWDGGTSYYVDSVKGRFTISRDNAKNTVYLQMNSLKPEDTAVYYCAAGGNQYYSATYSIWNEYDFWGQGTQVTVSS
binding result: binds
